B1: CD3xB7H6-2 bispecific antibody (bispecific antibody, human IgG1, L234A L235A)
chain 1: not shown
chain 2: DIVLTQSPDSLAVSLGERATINCKASQSVDYDGDSYMNWYQQKPGQPPKLLIYAASTLHSGVPDRFSGSGSGTDFTLTISSLQAEDVAVYYCQQSKEDPRTFGQGTKLEIKGGGGSGGGGSGGGGSEVQLVQSGAEVKKPGASVKVSCKASGYTFTDYNMDWVRQAPGQGLEWIGDINPNNGGTLYNQKFRGRVTLTVDTSISTAYMELSRLRSDDTAVYYCARSEVFYGNYADYWGQGTTVTVSSEPKSCDKTHTCPPCPAPEAAGGPSVFLFPPKPKDTLMISRTPEVTCVVVDVSHEDPEVKFNWYVDGVEVHNAKTKPREEQYNSTYRVVSVLTVLHQDWLNGKEYKCKVSNKALPAPIEKTISKAKGQPREPQVCTLPPSRDELTKNQVSLSCAVKGFYPSDIAVEWESNGQPENNYKTTPPVLDSDGSFFLVSKLTVDKSRWQQGNVFSCSVMHEALHNHYTQKSLSLSPGK
notes: Heterodimer of two scFv-Fc units, knob-into-hole human IgG1 Fc; name formed by analogy with CD3xB7H6-14
B2: CD3xB7H6-7 bispecific antibody (bispecific antibody, human IgG1, L234A L235A)
chain 1: not shown
chain 2: DIVLTQSPDSLAVSLGERATINCKASQSVDYDGDSYMNWYQQKPGQPPKLLIYAASTLHSGIPDRFSGSGSGTDFTLTISSLQAEDVAVYYCQQSKEDPRTFGQGTKLEIKGGGGSGGGGSGGGGSEVQLVQSGAEVKKPGASVKVSCKASGYTFTDYNMDWVRQAPGQGLEWIGDINPNNGGTLYNQKFRGRVTLTVDKSISTAYMELSRLRSDDTAVYYCARSEVFYGNYADYWGQGTTVTVSSEPKSCDKTHTCPPCPAPEAAGGPSVFLFPPKPKDTLMISRTPEVTCVVVDVSHEDPEVKFNWYVDGVEVHNAKTKPREEQYNSTYRVVSVLTVLHQDWLNGKEYKCKVSNKALPAPIEKTISKAKGQPREPQVCTLPPSRDELTKNQVSLSCAVKGFYPSDIAVEWESNGQPENNYKTTPPVLDSDGSFFLVSKLTVDKSRWQQGNVFSCSVMHEALHNHYTQKSLSLSPGK
notes: as for B1
B3: CD3xB7H6-5 bispecific antibody (bispecific antibody, human IgG1, L234A L235A)
chain 1: not shown
chain 2: DIVLTQSPDSLAVSLGERATINCKASQSVDYDGDSYMNWYQQKPGQPPKLLIYAASTLHSGIPDRFSGSGSGTDFTLTISSLQAEDVAVYYCQQSKEDPRTFGQGTKLEIKGGGGSGGGGSGGGGSEVQLVQSGAEVKKPGASVKVSCKASGYTFTDYNMDWVRQAPGQGLEWMGDINPNNGGTLYNQKFRGRVTMTVDTSISTAYMELSRLRSDDTAVYYCARSEVFYGNYADYWGQGTTVTVSSEPKSCDKTHTCPPCPAPEAAGGPSVFLFPPKPKDTLMISRTPEVTCVVVDVSHEDPEVKFNWYVDGVEVHNAKTKPREEQYNSTYRVVSVLTVLHQDWLNGKEYKCKVSNKALPAPIEKTISKAKGQPREPQVCTLPPSRDELTKNQVSLSCAVKGFYPSDIAVEWESNGQPENNYKTTPPVLDSDGSFFLVSKLTVDKSRWQQGNVFSCSVMHEALHNHYTQKSLSLSPGK
notes: as for B1
B4: CD3xB7H6-3 bispecific antibody (bispecific antibody, human IgG1, L234A L235A)
chain 1: not shown
chain 2: DIVLTQSPDSLAVSLGERATINCKASQSVDYDGDSYMNWYQQKPGQPPKLLIYAASTLHSGVPDRFSGSGSGTDFTLTISSLQAEDVAVYYCQQSKEDPRTFGQGTKLEIKGGGGSGGGGSGGGGSEVQLVQSGAEVKKPGASVKVSCKASGYTFTDYNMDWVRQAPGQGLEWIGDINPNNGGTLYNQKFRGRVTLTVDKSISTAYMELSRLRSDDTAVYYCARSEVFYGNYADYWGQGTTVTVSSEPKSCDKTHTCPPCPAPEAAGGPSVFLFPPKPKDTLMISRTPEVTCVVVDVSHEDPEVKFNWYVDGVEVHNAKTKPREEQYNSTYRVVSVLTVLHQDWLNGKEYKCKVSNKALPAPIEKTISKAKGQPREPQVCTLPPSRDELTKNQVSLSCAVKGFYPSDIAVEWESNGQPENNYKTTPPVLDSDGSFFLVSKLTVDKSRWQQGNVFSCSVMHEALHNHYTQKSLSLSPGK
notes: as for B1
B5: CD3xB7H6-6 bispecific antibody (bispecific antibody, human IgG1, L234A L235A)
chain 1: not shown
chain 2: DIVLTQSPDSLAVSLGERATINCKASQSVDYDGDSYMNWYQQKPGQPPKLLIYAASTLHSGIPDRFSGSGSGTDFTLTISSLQAEDVAVYYCQQSKEDPRTFGQGTKLEIKGGGGSGGGGSGGGGSEVQLVQSGAEVKKPGASVKVSCKASGYTFTDYNMDWVRQAPGQGLEWIGDINPNNGGTLYNQKFRGRVTLTVDTSISTAYMELSRLRSDDTAVYYCARSEVFYGNYADYWGQGTTVTVSSEPKSCDKTHTCPPCPAPEAAGGPSVFLFPPKPKDTLMISRTPEVTCVVVDVSHEDPEVKFNWYVDGVEVHNAKTKPREEQYNSTYRVVSVLTVLHQDWLNGKEYKCKVSNKALPAPIEKTISKAKGQPREPQVCTLPPSRDELTKNQVSLSCAVKGFYPSDIAVEWESNGQPENNYKTTPPVLDSDGSFFLVSKLTVDKSRWQQGNVFSCSVMHEALHNHYTQKSLSLSPGK
notes: as for B1
B6: CD3xB7H6-4 bispecific antibody (bispecific antibody, human IgG1, L234A L235A)
chain 1: not shown
chain 2: DIVLTQSPDSLAVSLGERATINCKASQSVDYDGDSYMNWYQQKPGQPPKLLIYAASTLHSGVPDRFSGSGSGTDFTLTISSLQAEDVAVYYCQQSKEDPRTFGQGTKLEIKGGGGSGGGGSGGGGSEVQLVQSGAEVKKPGASVKVSCKASGYTFTDYNMDWVRQAPGKGLEWIGDINPNNGGTLYNQKFRGRVTLTVDKSISTAYMELSRLRSDDTAVYYCARSEVFYGNYADYWGQGTTVTVSSEPKSCDKTHTCPPCPAPEAAGGPSVFLFPPKPKDTLMISRTPEVTCVVVDVSHEDPEVKFNWYVDGVEVHNAKTKPREEQYNSTYRVVSVLTVLHQDWLNGKEYKCKVSNKALPAPIEKTISKAKGQPREPQVCTLPPSRDELTKNQVSLSCAVKGFYPSDIAVEWESNGQPENNYKTTPPVLDSDGSFFLVSKLTVDKSRWQQGNVFSCSVMHEALHNHYTQKSLSLSPGK
notes: as for B1
B7: CD3xB7H6-1 bispecific antibody (bispecific antibody, human IgG1, L234A L235A)
chain 1: not shown
chain 2: DIVLTQSPDSLAVSLGERATINCKASQSVDYDGDSYMNWYQQKPGQPPKLLIYAASTLHSGVPDRFSGSGSGTDFTLTISSLQAEDVAVYYCQQSKEDPRTFGQGTKLEIKGGGGSGGGGSGGGGSEVQLVQSGAEVKKPGASVKVSCKASGYTFTDYNMDWVRQAPGQGLEWMGDINPNNGGTLYNQKFRGRVTMTVDTSISTAYMELSRLRSDDTAVYYCARSEVFYGNYADYWGQGTTVTVSSEPKSCDKTHTCPPCPAPEAAGGPSVFLFPPKPKDTLMISRTPEVTCVVVDVSHEDPEVKFNWYVDGVEVHNAKTKPREEQYNSTYRVVSVLTVLHQDWLNGKEYKCKVSNKALPAPIEKTISKAKGQPREPQVCTLPPSRDELTKNQVSLSCAVKGFYPSDIAVEWESNGQPENNYKTTPPVLDSDGSFFLVSKLTVDKSRWQQGNVFSCSVMHEALHNHYTQKSLSLSPGK
notes: Heterodimer of two scFv-Fc monovalent units, knob-into-hole human IgG1 Fc; name formed by analogy with the printed CD3xB7H6-14
B8: CD3xB7H6-8 bispecific antibody (bispecific antibody, human IgG1, L234A L235A)
chain 1: not shown
chain 2: DIVLTQSPDSLAVSLGERATINCKASQSVDYDGDSYMNWYQQKPGQPPKLLIYAASTLHSGIPDRFSGSGSGTDFTLTISSLQAEDVAVYYCQQSKEDPRTFGQGTKLEIKGGGGSGGGGSGGGGSEVQLVQSGAEVKKPGASVKVSCKASGYTFTDYNMDWVRQAPGKGLEWIGDINPNNGGTLYNQKFRGRVTLTVDKSISTAYMELSRLRSDDTAVYYCARSEVFYGNYADYWGQGTTVTVSSEPKSCDKTHTCPPCPAPEAAGGPSVFLFPPKPKDTLMISRTPEVTCVVVDVSHEDPEVKFNWYVDGVEVHNAKTKPREEQYNSTYRVVSVLTVLHQDWLNGKEYKCKVSNKALPAPIEKTISKAKGQPREPQVCTLPPSRDELTKNQVSLSCAVKGFYPSDIAVEWESNGQPENNYKTTPPVLDSDGSFFLVSKLTVDKSRWQQGNVFSCSVMHEALHNHYTQKSLSLSPGK
notes: as for B1
B9: CD3xB7H6-10 bispecific antibody (bispecific antibody, human IgG1, L234A L235A)
chain 1: not shown
chain 2: DIVLTQTPLSLSVTPGQPASISCKASQSVDYDGDSYMNWYLQKPGQPPQLLIYAASTLHSGVPDRFSGSGSGTDFTLKISRVEAEDVGVYYCQQSKEDPRTFGQGTKLEIKGGGGSGGGGSGGGGSEVQLVQSGAEVKKPGASVKVSCKASGYTFTDYNMDWVRQAPGQGLEWIGDINPNNGGTLYNQKFRGRVTLTVDTSISTAYMELSRLRSDDTAVYYCARSEVFYGNYADYWGQGTTVTVSSEPKSCDKTHTCPPCPAPEAAGGPSVFLFPPKPKDTLMISRTPEVTCVVVDVSHEDPEVKFNWYVDGVEVHNAKTKPREEQYNSTYRVVSVLTVLHQDWLNGKEYKCKVSNKALPAPIEKTISKAKGQPREPQVCTLPPSRDELTKNQVSLSCAVKGFYPSDIAVEWESNGQPENNYKTTPPVLDSDGSFFLVSKLTVDKSRWQQGNVFSCSVMHEALHNHYTQKSLSLSPGK
notes: as for B1
B10: CD3xB7H6-9 bispecific antibody (bispecific antibody, human IgG1, L234A L235A)
chain 1: not shown
chain 2: DIVLTQTPLSLSVTPGQPASISCKASQSVDYDGDSYMNWYLQKPGQPPQLLIYAASTLHSGVPDRFSGSGSGTDFTLKISRVEAEDVGVYYCQQSKEDPRTFGQGTKLEIKGGGGSGGGGSGGGGSEVQLVQSGAEVKKPGASVKVSCKASGYTFTDYNMDWVRQAPGQGLEWMGDINPNNGGTLYNQKFRGRVTMTVDTSISTAYMELSRLRSDDTAVYYCARSEVFYGNYADYWGQGTTVTVSSEPKSCDKTHTCPPCPAPEAAGGPSVFLFPPKPKDTLMISRTPEVTCVVVDVSHEDPEVKFNWYVDGVEVHNAKTKPREEQYNSTYRVVSVLTVLHQDWLNGKEYKCKVSNKALPAPIEKTISKAKGQPREPQVCTLPPSRDELTKNQVSLSCAVKGFYPSDIAVEWESNGQPENNYKTTPPVLDSDGSFFLVSKLTVDKSRWQQGNVFSCSVMHEALHNHYTQKSLSLSPGK
notes: as for B1

What follows are binders tested against T1, Human B7H6 (ACRO biosystems, cat. No. B76-H52H8) (human, UniProt Q68D85 25-262) (assay: ELISA, B7H6 coated, HRP anti-human IgG detection).
T1 construct: Bought antigen; also called B7H6 antigen; human B7H6 protein
T1 sequence (looked up): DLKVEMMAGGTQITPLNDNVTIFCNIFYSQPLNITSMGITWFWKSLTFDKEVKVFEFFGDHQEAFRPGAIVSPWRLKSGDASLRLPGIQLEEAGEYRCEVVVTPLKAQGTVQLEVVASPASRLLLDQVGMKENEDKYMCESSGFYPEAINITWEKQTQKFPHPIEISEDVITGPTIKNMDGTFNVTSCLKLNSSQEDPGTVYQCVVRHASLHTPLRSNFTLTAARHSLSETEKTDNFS
Experimental: Human B7H6 (ACRO biosystems, cat. No. B76-H52H8) and human CD3 antigen (ACRO biosystems, cat. No. CDD-H52W1) were diluted to 2 μg/mL with coating buffer (35 mM NaHCO₃, 15 mM Na₂CO₃, pH 9.6), respectively. 100 μL of the diluted solution was added to each well of an ELISA plate at 4° C. overnight, and then washes with PBST (0.05% Tween 20-PBS, pH 7.2) 3 times. 300 μL of blocking buffer (1% BSA, 0.05% Tween20-PBS, pH 7.2) was added to the plate and allowed to stand at room temperature for 2 h, followed by washing with PBST three times. The corresponding bispecific antibody was added to each well and incubated at room temperature for 1 h, followed by washing with PBST three times. 100 μL of HRP-rabbit anti human IgG secondary antibody (Boster, cat. No. BA1070) diluted in blocking buffer was added to each well and incubated for 1 h at room temperature, followed by washing with PBST three times. TMB was added into each well. The plate was kept away from light at room temperature for 2-5 min, the reaction was stopped by adding 2 M sulfuric acid in each well, and finally OD450 values were read with microplate reader.
B1: binds.
B2: binds.
B3: binds.
B4: binds.
B5: binds.
B6: binds.
B7: binds.
B8: binds.
B9: binds.
B10: binds.

Reference: patent publication US20240124615A1 (HEFEI TG IMMUNOPHARMA, published 2024)
